From patent publication US20230331852A1 (OSE IMMUNOTHERAPEUTICS, published 2023) come the findings set out here.

For test [1], the target named is T1, human CLEC-1A expressed on the cell membrane (human, UniProt Q8NC01 1-280).
T1 construct: Endogenous on human U266 myeloma cells, on monocyte-derived TGFb-DC and macrophages; on CHO cells after transduction with a Clec-1 expressing lentivirus; also called U266 CLEC1; CLEC-1A on U266 cells
T1 sequence: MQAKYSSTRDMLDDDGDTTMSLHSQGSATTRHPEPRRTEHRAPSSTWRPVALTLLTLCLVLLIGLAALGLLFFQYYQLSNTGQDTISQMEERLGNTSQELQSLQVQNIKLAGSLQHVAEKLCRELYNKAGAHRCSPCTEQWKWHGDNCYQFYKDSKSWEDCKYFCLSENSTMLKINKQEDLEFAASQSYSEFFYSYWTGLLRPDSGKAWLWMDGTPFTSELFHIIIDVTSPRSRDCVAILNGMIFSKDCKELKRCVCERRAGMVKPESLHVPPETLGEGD
The test is described as follows: flow cytometry on CHO-Clec-1 cells (from FIGURE 21). The protocol:
To measure binding of anti-clec on CHO-Clec-1 cells, human Fc Receptor Binding Inhibitor diluted at 1/200 (BD pharmingen; USA; reference 564220) was first added for 30 min at room-temperature to block human Fc receptors on CHO-Clec-1 cells to reduce background. Then, antibodies were incubated for 30 min at 4° C., and washed before stained 15 min at 4° C. with PE-labelled anti-human IgG Fc (Biolegend; USA; reference 409303). Samples were analyzed on citoflex (Beckman coulter)
Background: Flow cytometry measures light scatter and fluorescence of single cells or particles in a stream.

Test [2] deals with T2, Fc-CLEC1 labelled with Alexa Fluor 488 (human, Alexa Fluor 488 label (sites not given)).
T2 construct: also called Fc-CLEC1-A488; Alexa488-Fc-Clec-1
T2 chain: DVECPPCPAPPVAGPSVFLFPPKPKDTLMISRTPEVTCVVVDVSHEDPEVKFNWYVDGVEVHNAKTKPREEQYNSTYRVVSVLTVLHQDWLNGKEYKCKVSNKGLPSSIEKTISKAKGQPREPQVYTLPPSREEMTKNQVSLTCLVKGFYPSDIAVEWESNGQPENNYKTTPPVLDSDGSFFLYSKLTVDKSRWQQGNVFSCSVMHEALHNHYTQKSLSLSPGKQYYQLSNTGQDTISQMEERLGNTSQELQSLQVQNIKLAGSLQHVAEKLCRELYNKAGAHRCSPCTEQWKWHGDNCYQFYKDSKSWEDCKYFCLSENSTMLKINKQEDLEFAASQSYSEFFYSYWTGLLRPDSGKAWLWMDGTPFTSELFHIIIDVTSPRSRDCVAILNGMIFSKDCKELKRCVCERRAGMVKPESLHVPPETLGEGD
The test is described as follows: FACS competition: blocks Fc-CLEC1-A488 (10 nM) binding to CLEC-1 ligand on UV-treated PBMC; % binding. The procedure:
(§1) Competition were also measured on UV pre-treated pro-apoptotic human PBMCs, which can also express the ligand after a treatment under UV radiation for 18 hours. After UV treatment, cells were first washed in cold-PSE and then blocked during 30 min at room temperature with human Fc-block 50-fold diluted in PSE, and then replaced on ice. Purified anti-Clec antibodies at different concentrations were pre-incubated with Alexa488-Fc-Clec-1 in PSE at different concentrations for 15 min at room temperature. Pre-incubated mixes were then incubated on Fc-blocked/SAB (#34005-100, Invitrogen, Illkirch, France) pro-apoptotic PBMCs for 30 min on ice. Binding on cells were then fixed by PFA 2% in cold PBS for 10 min on ice and analyzed on CytoFlex cytofluorometer (Beckman Coulter France, Villepinte).
(§2) Methods. To measure competition on permeabilised Raji (CytoFix/cytoperm kit, BD Biosciences) which expressed CLEC1 ligand, Fc-CLEC1-labelled A488 which bound specifically to permeabilised Raji was used. To measure competition, Fc-CLEC1 labelled A488 at 10 nM or 20 nM was mixed with mouse anti-hCLEC1 at different concentrations for 15 min at RT then added on these cells for 30 min at 4° C. […] To measure competition on PMBC, we used human PBMC pre-treated by UV for 18 h to obtain apoptotic PBMC, which expressed CLEC1 ligand. Fc-CLEC1-labelled A488 bound specifically apoptotic UV-treated PBMC. To measure competition, Fc-CLEC1 labelled A488 at 10 nM was mixed with mouse anti-hCLEC1 at different concentrations for 15 min at RT then added on these cells for 30 min at 4° C.

Test [3] deals with T2, Fc-CLEC1 labelled with Alexa Fluor 488. The test is described as follows: FACS competition: blocks Fc-CLEC1-A488 (10 nM) binding to CLEC-1 ligand on permeabilised Raji cells; IC50 median. The protocol: To measure competition, purified anti-Clec antibodies at different concentrations were pre-incubated in Perm Wash Buffer with Alexa488-Fc-Clec-1 for 15 min at room temperature. Pre-incubated mixes were then incubated on permeabilized and Fc-blocked Raji cells for 30 min on ice. Binding on cells were then fixed by PFA 2% in cold PBS for 10 min on ice and analyzed on CytoFlex cytofluorometer (Beckman Coulter France, Villepinte).
as §2

Test [4] deals with T1, human CLEC-1A expressed on the cell …. The test is described as follows: flow cytometry on U266 cells, PE anti-human IgG; % positive cells. The procedure: (§3) Method: To measure binding of anti-CLEC1 on human U266 cell lines (pre-blocked with Fcblock to blocking FcR), antibodies at different concentrations were incubated for 30 min at 4° C., and washed before stained 30 min at 4° C. with PE-labelled anti-human IgG (Biolegend; reference 409304). Samples were analyzed on Cytoflex cytofluorometer (Beckman Coulter). The MFI of anti-CLEC1 was compared between all anti-CLEC1 antibodies and percentage of stained cells was analysed in all conditions.

Test [5] addresses T2, Fc-CLEC1 labelled with Alexa Fluor 488. Put plainly: FACS competition: blocks Fc-CLEC1-A488 (10 nM) binding to CLEC-1 ligand on UV-treated PBMC. The procedure: as §1, §2
Test [6] concerns the target T1, human CLEC-1A expressed on the cell …. Put plainly: flow cytometry on U266 cells, PE anti-human IgG; median fluorescence. The procedure:
as §3

Test [7] has the same target. The test is described as follows: flow cytometry on U266 cells. The procedure: as §3

B1: chimeric anti-CLEC-1A antibody 14H9 (antibody, human IgG4 S228P, kappa, V domains shown)
VH: QVQLKESGPGLVAPSQSLSITCTISGFSLTTYGIHWVRQPPGKGLEWLVVIWSDGSTIYNSALKSRLSISKDNSKSQVFLKMNSLQTDDTAIYYCARHGGYYNYFDYWGQGTTLTVSS
VL: DIQMNQSPSSLSASLGDTITITCHASQNINVWLSWYQQKPGNIPKLLIYKASNLHTGVPSRFSGSGSGTTFTLTIDSLQPEDIATYYCQQGQSYWTFGGGTKLEIKR
notes: also called 14H9chim; 14H9-VHwt-FcG4m / 14H9-VLwt-CLhk
Usually EC50 stands for the midpoint of the concentration-response curve. A high value points to weaker potency. What is called IC50 is the midpoint of a concentration-inhibition curve. Low readings indicate greater potency in that assay, high ones weaker potency in that assay. As usually defined, the EC50 (read off the curve) is the midpoint of the concentration-response curve. Low values mean greater potency, high ones weaker potency. B1: the EC50 is 0.895 µg/mL in test [1] and 0.113 µg/mL in test [7]. Besides, the “IC50 (read off the curve)” value in test [2] was roughly 0.7 µg/mL. For the same molecule, the IC50 was found to be 3.9 nM in test [3] and 0.873 µg/mL in test [5]. The “EC50 (read off the curve)” value in test [4] and in test [6] was roughly 0.06 µg/mL throughout.
